# Experimental data: patent publication US20250034275A1 (CHIA TAI TIANQING PHARMACEUTICAL GROUP, published 2025)
# Changes are numbered by the printed parent chain.
# T1: Macaque Trop-2-His (macaque, UniProt P09758 27-274 (human entry))
# T1 construct: Extracellular domain of macaque Trop-2 recombinantly linked to His; also called monkey Trop-2-His protein; monkey Trop-2
# T1 chain: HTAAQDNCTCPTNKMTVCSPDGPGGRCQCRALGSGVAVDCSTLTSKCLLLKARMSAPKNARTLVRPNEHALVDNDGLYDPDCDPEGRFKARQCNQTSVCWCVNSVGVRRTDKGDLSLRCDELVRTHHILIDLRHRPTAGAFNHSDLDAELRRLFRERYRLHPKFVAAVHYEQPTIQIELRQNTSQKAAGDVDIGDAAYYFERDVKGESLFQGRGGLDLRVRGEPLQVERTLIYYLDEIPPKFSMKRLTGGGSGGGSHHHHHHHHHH
# T2: human Trop-2 (on the surface of human cell lines) (human, UniProt P09758 27-323)
# T2 construct: Endogenous Trop-2 on NCI-H322, Capan-1, PC-3, HUVEC, OVCAR-3, HCC38 and HCC1806 cells; also called TACSTD2
# T2 sequence: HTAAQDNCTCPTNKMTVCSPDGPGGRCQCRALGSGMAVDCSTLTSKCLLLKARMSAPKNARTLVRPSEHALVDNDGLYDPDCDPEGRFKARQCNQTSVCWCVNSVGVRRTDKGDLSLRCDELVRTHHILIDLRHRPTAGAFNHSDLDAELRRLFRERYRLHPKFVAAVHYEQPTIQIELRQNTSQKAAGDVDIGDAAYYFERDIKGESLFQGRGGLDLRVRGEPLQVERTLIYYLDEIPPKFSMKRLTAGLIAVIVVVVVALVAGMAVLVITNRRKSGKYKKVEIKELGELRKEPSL
# T3: human Trop-2-His (human, UniProt P09758 27-274, limits assumed)
# T3 construct: by analogy with the macaque construct it is probably the extracellular domain with a His tag; also called Trop-2-His protein
# T3 sequence: T1 chain with V36M, N67S, V204I
# B1: hz-Ab2-1.1 (antibody, human IgG1, kappa, V domains shown)
# VH: EVQLVESGGGLIQPGGSLRLSCAVSGFSLTYYGIDWVRQPPGKGLEWVSVIWGSGNTKYNSALKSRLTISRDNSKSTLYLQMNSLRAEDTAVYYCARFYEGFAYWGQGTLVTVSS
# VL: DIQMTQSPSSLSASVGDRVTITCKASQDINSYLSWFQQKPGKAPKTLIYRANRLVEGVPSRFSGSGSGQDYTLTISSLQPEDFATYYCLQYDEFPLTFGQGTKVEIKR
# notes: Humanized antibody
# B2: hz-Ab2-1.3 (antibody, human IgG1, kappa, V domains shown)
# VH: QVQLQESGPGLVKPSETLSLTCTVSGFSLTYYGIDWIRQPPGKGLEWIGVIWGSGNTKYNSALKSRVTISKDNSKSQFSLKLSSVTAADTAVYYCARFYEGFAYWGQGTLVTVSS
# VL: B1 VL
# notes: Humanized antibody
# B3: hz-Ab2-2.3 (antibody, human IgG1, kappa, V domains shown)
# VH: B2 VH
# VL: B1 VL with K24R, Y71F, F94Y
# notes: Humanized antibody
# B4: hz-Ab2-2.1 (antibody, human IgG1, kappa, V domains shown)
# VH: B1 VH
# VL: B1 VL with K24R, Y71F, F94Y
# notes: Humanized antibody
# B5: hz-Ab2-2.2 (antibody, human IgG1, kappa, V domains shown)
# VH: B1 VH with G9P, S49G, S61Y, R71K
# VL: B1 VL with K24R, Y71F, F94Y
# notes: Humanized antibody
# B6: hz-Ab2-1.4 (antibody, human IgG1, kappa, V domains shown)
# VH: B2 VH with F78V, S79Y
# VL: B1 VL
# notes: Humanized antibody
# B7: hz-Ab2-1.2 (antibody, human IgG1, kappa, V domains shown)
# VH: B1 VH with G9P, S49G, S61Y, R71K
# VL: B1 VL
# notes: Humanized antibody
# B8: ch-Ab2 (antibody, human IgG1, kappa, V domains shown)
# VH: EVQLVESGPGLVAPSQSLSITCTVSGFSLTYYGIDWVRQPPGKGLEWLGVIWGSGNTKYNSALMSRLSISKDNSKSQVFLRMNSLQSDDTAIYYCARFYEGFAYWGQGTLVTVSA
# VL: AIVLTQSPSSMYASLGERVTITCKASQDINSYLSWFQQKPGKSPKTLIYRANRLVDGVPSRFSGSGSGQDYSLTISSLEYEDMGIYYCLQYDEFPLTFGVGTKLELKR
# notes: also called chimeric antibody of Ab2
# Target: T1, Macaque Trop-2-His
# Assay: ELISA, plate-coated macaque Trop-2-His
# Method: (§1) After the liquid was discarded, 2% BSA (SIGMA, B2064-100G) diluted with PBS was added at 300 μL/well for blocking, and the mixture was incubated at 37° C. for 2 h. After the blocking was completed, the blocking buffer was discarded, the plate was washed 3 times with the PBST buffer (pH 7.4 PBS containing 0.1% tween-20), the antibody solution diluted in a gradient was added at 100 μL/well, and the mixture was incubated at 37° C. for 1 h. After the incubation was completed, the plate was washed 3 times with PBST, the goat anti-human IgG (H+L) (JacksonImmunoResearch, 109-035-098, 1:5000 dilution) was added at 100 μL/well, and the mixture was incubated at 37° C. for 1 h. After the plate was washed 3 times with PBST, a TMB chromogenic substrate (TIANGEN, PA107-01) was added at 100 μL/well. The mixture was incubated at room temperature for 10-15 min, and then 1 M H₂SO₄ was added at 50 μL/well to terminate the reaction. The absorbance values at 450 nm were taken using a microplate reader. The binding curves of antibodies for antigen were fitted using software, and the EC₅₀ values were calculated.
row,EC50 [pM],Binder
1,133,B1
2,68,B2
3,830,B3
4,1190,B4
5,341,B5
6,53,B6
7,64,B7
8,48,B8

# Target: T2, human Trop-2 (on the surface of human …)
# Assay: flow cytometry, HCC1806 cells
# Method: (§2) Tumor cells expressing Trop-2 were prepared into a cell suspension (0.5-1×10⁶ cells/mL) using the FACS buffer (Miltenyi Biotec, 130-091-221), and the cell suspension was added to a 96-well V-bottom plate at 100 μL/well. After centrifugation and removal of the supernatant, the test antibodies diluted with the FACS buffer to different concentrations (0.006 nM-100 nM) were each added at 50 μL/well. The mixture was incubated in the dark in a 4° C. refrigerator for 1 h. The plate was then washed 3 times with the FACS buffer by centrifugation at 300 g, and Alexa Fluor 488 goat anti-human IgG (H+L) (Bio-legend, 409304, 1:500 dilution) at working concentration was added. The mixture was incubated in the dark in a 4° C. refrigerator for 40 min. The plate was then washed 3 times with the FACS buffer by centrifugation at 300 g, the geometric mean fluorescence intensity (MFI) was measured on a Sartorius iQue3 flow cytometer, and the binding EC₅₀ values of the antibodies for tumor cells with different Trop-2 expression levels were calculated
row,EC50 [pM],Binder
1,1220,B2
2,1070,B6
3,900,B7
4,780,B8

# Target: T2, human Trop-2 (on the surface of human …)
# Assay: cell-based or functional assay
Binder,"ADCC, PBMC killing (LDH), H322, EC50 [pM]","ADCC, PBMC killing (LDH), H322, Maximum killing (%)","ADCC, PBMC killing (LDH), HCC1806, EC50 [pM]","ADCC, PBMC killing (LDH), HCC1806, Maximum killing (%)"
B1,130,47.8,460,32.9
B2,20,48.1,60,37
B6,10,48.7,20,34.8
B7,10,48.4,30,36.6
B8,10,48.1,20,40

# Target: T3, human Trop-2-His
# Assay: SPR (Biacore 8K), antibody captured, Trop-2-His as analyte
# Excerpt: The affinity of antibodies for human Trop-2-His was detected in the form of antibody capturing. The antibody was affinity-captured by a CM5 (Cat. #29149603, GE) biosensor chip conjugated with an anti-human IgG antibody (from human antibody capture kit, Cat. #29234600, GE), then the antigen human Trop-2-His flowed on the surface of the chip, and a Biacore 8K instrument was used for detecting reaction signals in real time to obtain association and dissociation curves. After dissociation was completed for each assay cycle, the chip was washed clean and regenerated with a regeneration buffer, 3M MgCl₂ (from human antibody capture kit, Cat. #29234600, GE). The association and dissociation curves were collected by Biacore 8K Control Software 3.0 in real time, and the data were analyzed by Biacore Insight Evaluation Software 3.0. The data were fitted using a Langmuir 1:1 model after double subtraction (namely, in each cycle, the contrast channel signal was subtracted from the experimental channel signal, and the sample signal was subtracted from the blank signal), and the association rate constant Ka, the dissociation rate constant Kd, and the equilibrium constant KD were calculated.
Kd [pM],koff [s⁻¹],kon [M⁻¹ s⁻¹],Binder
47800,0.0029,60600,B1
16500,0.0165,1e+06,B2
2720,0.000643,237000,B3
686,0.00023,336000,B4
2410,0.00059,245000,B5
2320,0.00284,1.22e+06,B6
1430,0.00508,3.56e+06,B7

# Target: T3, human Trop-2-His
# Assay: ELISA, plate-coated human Trop-2-His
# Method: as §1, with “with” for “with the”
row,EC50 [pM],Binder
1,82,B1
2,81,B2
3,359,B3
4,1080,B4
5,218,B5
6,68,B6
7,76,B7
8,85,B8

# Target: T2, human Trop-2 (on the surface of human …)
# Assay: flow cytometry, HCC38 cells
# Method: as §2
row,EC50 [pM],Binder
1,650,B2
2,1200,B6
3,760,B7
4,590,B8

# Target: T2, human Trop-2 (on the surface of human …)
# Assay: cell-based or functional assay
# Remark: another data set of the same source
"ADCC reporter (Jurkat-CD16a v158-NFAT-luciferase), target cell H322, EC50 [pM]","ADCC reporter (Jurkat-CD16a v158-NFAT-luciferase), target cell HCC1806, EC50 [pM]",Binder
1450,4100,B1
170,330,B2
340,390,B6
310,420,B7
170,200,B8
